Results on one molecule are retold here after US20040170622A1, “Methods and compositions for modulating XBP-1 activity” (President and Fellows of Harvard College, priority 2002, published 2004).

The test system of one series is UPR target genes. In words: UPR target gene induction by Tm in MEF-dn-XBP cells (Northern blot). The class given is cell-based. The note with it: 10 μg/ml Tm. The protocol:
(§1) (A) The 5×ATF6GL3 reporter plasmid was cotransfected with either pCGNATF6α or XBP-u/s plasmids into MEF cells with or without the dominant negative XBP-1 expression plasmid. 100 ng DNA was used for each transfection except for pCDNA3.1, which was added to give 1 μg of DNA in total. Luciferase assays were performed as described in the legend to FIG. 18.(B) MEF and MEF-dn-XBP cells that stably express dominant negative XBP-1 protein were treated with 10 μg/ml Tm for the indicated time periods. Total RNAs were isolated and subjected to Northern blot analysis. The same blot was hybridized sequentially with BiP, CHOP, ERdj4, p58^ipk and ATF6α probes. Ethidium bromide staining of the gel before blotting is shown at the bottom as loading control.
293T and MEF cells derived from wild type and XBP-1^−/− embryos were cultured in DMEM supplemented with 10% fetal calf serum (Hyclone Laboratories). MEF-tet-off cells (Clontech) were maintained in the same media with the addition of 100 μg/ml G418 and 1 μg/ml doxycycline. XBP-1s inducible cells were obtained by transfecting MEF-tet-off cells with the TREhyg-XBP-1s plasmid and then selecting in the presence of 400 μg/ml hygromycin B. Several clones were tested for doxycycline-dependent XBP-1s expression, and one was selected for further experiments. MEF-dn-XBP cells were generated by transfecting MEF-tet-off cells with the TREhyg-dn-XBP plasmid. […]

Another series concerns XBP-1 and ATF6α. In words: UPRE (5×ATF6GL3) reporter in MEF cells with dominant negative XBP-1. Type of series: cell-based. The protocol: as §1
To make 4×XBPGL3, two complementary oligonucleotides containing the XBP-1 binding site 5^f-CGCG(TGGATGACGTGTACA)4-3′ (SEQ ID NO: 12) and 5′-GATC(TGTACACGTCATCCA)4-3^f (SEQ ID NO: 13) were annealed and ligated to the—40-Luc plasmid (Lee et al. 2000. Biochem J. 350 Pt1:131-138) digested by Mlu I and Bgl II. The UPRE reporter was constructed by inserting an annealed oligonucleotide containing two UPRE motifs (Roy and Lee 1999 Nucleic Acids Res. 27:1437), 5′-cgcgtcaCCAATcggaggcctCCACGaccaCCAATcggaggcctCCACGac-3′, (SEQ ID NO: 14) to the 40-Luc plasmid between the Mlu I and Xho I sites (Lee et al. 2000. Biochem J. 350 Pt1:131-138). UPRE reporter (5×ATF6GL3), pCGNATF6 and pCGNAF6 (1-373) were previously described (Wang et al. 2000. J. Biol. Chem. 275:27013). The pCDNA3.1 ([…]) driven expression vectors for mouse XBP-1s and XBP-1u/s were described elsewhere (Iwakoshi et al. 2003. Nature Immunology 4:321). pCDNA-dn-XBP was constructed by removing the region downstream of the Eco RV site of XBP-1s cDNA in the pCDNA-XBP-1s plasmid. TREhyg-XBP-1s and TREhyg-dn-XBP were constructed by inserting the XBP-1s cDNA and DN-XBP, respectively, into TRE2 hyg (Clontech) between the Pvu II and Sal I sites. […]

Where two headings read alike, the source gives them in different places.

B1: dn-XBP: dominant negative XBP-1 containing the N-terminal 188 aa, lacking transactivation domain, retaining leucine zipper (protein)
chain: MVVVAAAPSAATAAPKVLLLSGQPASGGRALPLMVPGPRAAGSEASGTPQARKRQRLTHLSPEEKALRRKLKNRVAAQTARDRKKARMSELEQQVVDLEEENHKLQLENQLLREKTHGLVVENQELRTRLGMDTLDPDEVPEVEAKGSGVRLVAGSAESAAGAGPVVTSPEHLPMDSDTVASSDSESD
As to B1, in the series with UPR target genes, the “induction of CHOP by Tm” value is on record as “suppressed the induction of CHOP”; the “induction of ERdj4 and p58ipk by Tm” value was “significantly suppressed the induction of XBP-1 target genes, ERdj4 and p58^ipk”. Besides, in the series with XBP-1 and ATF6α, the “transactivation of the UPRE reporter by ATF6α / function of ATF6” value is given as “inhibited the transactivation of the UPRE reporter by ATF6α” and the “transactivation of the UPRE reporter by XBP-1s” value is listed as “completely abolished transactivation of the UPRE reporter by XBP-1s”. The “transactivation of the UPRE reporter by ATF6α / function of ATF6” value in the series with XBP-1 and ATF6α (listed as dn-XBP-1) is given as “potently inhibited the function of ATF-6 through heterodimerization”.
